Data reported in the supplement of paper PMC10126150.
± gives the standard deviation of the averaged measurements.

Tested on: ATP
Assay: switch fluorescence ratio, 500 uM ATP over buffer (Cy3 cluster intensity, sum of 5 cycles each) (fold (ratio)); higher = stronger signal-on switching upon ATP binding; sequences stand for … in TCGTCGGCAGCGTCAGATGTGTATAAGAGACAGTTTTTTTTTTTTTTTTTTTTTTTTT…TC
Conditions: aptamer strand: ATP DNA aptamer (quencher-CACCTGGGGGAGTATTGCGGAGGAAGG + anchor), 100 nM annealed; ATP concentration: 500 uM
How it was run: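 Imaging in selection buffer was followed by imaging after 15 min with 500 uM ATP at 22 °C, for Cy3-labelled switching-strand clusters annealed to 100 nM quencher-labelled ATP aptamer on a modified Illumina MiSeq flow-cell. Five of these buffer/ATP cycles ran, separated by NaOH stripping and re-annealing. The fluorescence ratio per cluster is summed target-cycle over summed buffer-cycle Cy3 intensity, averaged per switch-domain sequence; clusters outside 100-1000 RFU were removed.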
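Note: ATP exposure 15 min at 22 °C before imaging.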

TAGGTCATTG gave a switch fluorescence ratio of 0.995 ± 0.025.
With GACAAACCGC the switch fluorescence ratio was 1.18 ± 0.032.
For GGCCTGGGGT, the switch fluorescence ratio was 0.996 ± 0.029.
TAAAAAACCG was tested, and the switch fluorescence ratio was 1.03 ± 0.025.
For TGAGTAAAGC, the switch fluorescence ratio was 1.03 ± 0.062.
Sequence TACTGATTTG has a switch fluorescence ratio of 1.02 ± 0.017.
TTGGAGTTGG showed a switch fluorescence ratio of 0.976 ± 0.043.
TTGGGTATAA was tested, and the switch fluorescence ratio was 0.989 ± 0.03.
For GCGAGGTCGG, the switch fluorescence ratio was 1.03 ± 0.07.
In the case of AATTTCGTTG, the switch fluorescence ratio is reported as 0.999 ± 0.029.
For TCACTCATTG, the switch fluorescence ratio was 0.9975 ± 0.0014.
CTGGGGGATA was tested, and the switch fluorescence ratio was 1.02 ± 0.036.
For GGGGTTGGGA, the switch fluorescence ratio was 0.971 ± 0.025.
Sequence TGTGTCTAGT has a switch fluorescence ratio of 0.974 ± 0.0013.
Sequence AGCAGATAGG has a switch fluorescence ratio of 1.03 ± 0.079.
TATGTACTAT gave a switch fluorescence ratio of 1.08 ± 0.029.
GGGGTAGAAG gave a switch fluorescence ratio of 1.004 ± 0.0016.
GGATGCTAGG was tested, and the switch fluorescence ratio was 1.01 ± 0.048.
In the case of AAGGCGGGAG, the switch fluorescence ratio is reported as 0.96 ± 0.032.
Work on GACATTTCGT yielded a switch fluorescence ratio of 0.992 ± 0.019.
For TTTTTAATTG, the switch fluorescence ratio was 0.997 ± 0.024.
TTCGGGGGGG was tested, and the switch fluorescence ratio was 1.01 ± 0.043.
TTTCGAGAGA was tested, and the switch fluorescence ratio was 1.02 ± 0.027.
Sequence TATTTTGAGT has a switch fluorescence ratio of 0.989 ± 0.012.
ATGAAAAAAT was tested, and the switch fluorescence ratio was 0.974 ± 0.015.
Sequence TCTCACGGAA has a switch fluorescence ratio of 1.68 ± 0.19.
Sequence ATAGTCAGGG has a switch fluorescence ratio of 0.988 ± 0.036.
Work on GGTAGAAAGG yielded a switch fluorescence ratio of 1.03 ± 0.093.
Work on GCGCTTAAGT yielded a switch fluorescence ratio of 0.986 ± 0.043.
TTAGTGTGTG was tested, and the switch fluorescence ratio was 0.994 ± 0.011.
AAATTTAAAT gave a switch fluorescence ratio of 1.02 ± 0.024.
TAATGATTTT was tested, and the switch fluorescence ratio was 0.967 ± 0.031.
ATATTGATTA gave a switch fluorescence ratio of 1.02 ± 0.032.
AACGGGGAGC showed a switch fluorescence ratio of 0.983 ± 0.047.
Sequence GGCAATTCTC has a switch fluorescence ratio of 3.9 ± 0.31.
GACGTAACCT gave a switch fluorescence ratio of 1.5 ± 0.032.
TACATCGTGC showed a switch fluorescence ratio of 0.992 ± 0.016.
Work on TTTTCAAAAA yielded a switch fluorescence ratio of 1.13 ± 0.19.
Work on AGGATGAAAT yielded a switch fluorescence ratio of 0.992 ± 0.051.
In the case of GAAATAGGGC, the switch fluorescence ratio is reported as 0.997 ± 0.0058.
GTTTTCTGGA gave a switch fluorescence ratio of 0.9988 ± 0.0057.
Sequence TATCTGGGCA has a switch fluorescence ratio of 1.06 ± 0.087.
In the case of ACTACTACCA, the switch fluorescence ratio is reported as 1.31 ± 0.048.
Sequence TCTGGGGCGT has a switch fluorescence ratio of 1.007 ± 0.0086.
In the case of TTCGGATAAA, the switch fluorescence ratio is reported as 1.01 ± 0.058.
For GCCTTCGACT, the switch fluorescence ratio was 1.051 ± 0.0017.
TAAGGGTTCT was tested, and the switch fluorescence ratio was 0.9916 ± 0.0089.
With AGGTTTAGTA the switch fluorescence ratio was 1.02 ± 0.015.
Work on TATAAAGGTG yielded a switch fluorescence ratio of 1.11 ± 0.14.
Sequence TTTTATTATC has a switch fluorescence ratio of 0.9986 ± 0.0079.
With GTTACTTGCC the switch fluorescence ratio was 0.992 ± 0.039.
In the case of GAGGTTAATA, the switch fluorescence ratio is reported as 1.04 ± 0.021.
Sequence CAATGTTATC has a switch fluorescence ratio of 1.01 ± 0.017.
For TAAGAAGTAT, the switch fluorescence ratio was 0.999 ± 0.034.
CTTTTAAGGT was tested, and the switch fluorescence ratio was 0.984 ± 0.03.
TTTACTTCGC showed a switch fluorescence ratio of 1.54 ± 0.089.
For TTTTATTTCG, the switch fluorescence ratio was 1.03 ± 0.068.
AACAACTTTT showed a switch fluorescence ratio of 1.04 ± 0.042.
In the case of CGCTGTGGGC, the switch fluorescence ratio is reported as 0.988 ± 0.044.
TGAGGACAGT was tested, and the switch fluorescence ratio was 1 ± 0.018.
ACGACGTTGA showed a switch fluorescence ratio of 1.07 ± 0.032.
ATTGATTTTT was tested, and the switch fluorescence ratio was 1.01 ± 0.019.
For TTTTGAATCG, the switch fluorescence ratio was 1.008 ± 0.0091.
Work on TCAATGGGTA yielded a switch fluorescence ratio of 0.991 ± 0.021.
With ATGAATATTA the switch fluorescence ratio was 0.99254 ± 0.00014.
With TGCAGTAAGG the switch fluorescence ratio was 0.97794 ± 0.00081.
TTTTTATTAT showed a switch fluorescence ratio of 1.01 ± 0.036.
In the case of ACAATTGCGT, the switch fluorescence ratio is reported as 1.05 ± 0.024.
TCGTGCAGTT gave a switch fluorescence ratio of 1.01 ± 0.015.
TTGGCGGCTT was tested, and the switch fluorescence ratio was 1.02 ± 0.032.
For TTGGTGTGGC, the switch fluorescence ratio was 0.9967 ± 0.0092.
For ATTGAAGCCT, the switch fluorescence ratio was 1.15 ± 0.013.
TCGGGGGGGA gave a switch fluorescence ratio of 1.06 ± 0.14.
In the case of CTTAGTATAG, the switch fluorescence ratio is reported as 0.998 ± 0.032.
AAAGCCTTGG showed a switch fluorescence ratio of 0.973 ± 0.021.
In the case of TTGTTAGCCT, the switch fluorescence ratio is reported as 1.05 ± 0.019.
In the case of GAAAAAAAGG, the switch fluorescence ratio is reported as 0.982 ± 0.051.
Work on ATTAGTGTCA yielded a switch fluorescence ratio of 1 ± 0.035.
GAGTTTAGGT showed a switch fluorescence ratio of 1.02 ± 0.011.
GATGCGGGGA was tested, and the switch fluorescence ratio was 1.01 ± 0.018.
With CGGCCGGACT the switch fluorescence ratio was 1.01 ± 0.047.
CAAGTCAAAG was tested, and the switch fluorescence ratio was 0.996 ± 0.039.
Sequence GGGTGTGGGG has a switch fluorescence ratio of 0.989 ± 0.046.
Work on TTTATATTCT yielded a switch fluorescence ratio of 1.03 ± 0.074.
For CGTTCTCCCC, the switch fluorescence ratio was 1.03 ± 0.068.
For CCGTTGGGGG, the switch fluorescence ratio was 1.01 ± 0.036.
TGGGACGGTC showed a switch fluorescence ratio of 1.1 ± 0.051.
For CACTTCTTAT, the switch fluorescence ratio was 0.973 ± 0.021.
GTTCTAGGGT gave a switch fluorescence ratio of 0.9743 ± 0.0042.
In the case of AAACTGACGG, the switch fluorescence ratio is reported as 1.37 ± 0.016.
TTTAATTAAG was tested, and the switch fluorescence ratio was 0.985 ± 0.055.
GGTTAACTGG gave a switch fluorescence ratio of 0.991 ± 0.023.
For CAAGGCAAGG, the switch fluorescence ratio was 1.07 ± 0.018.
For ACCATGTACT, the switch fluorescence ratio was 1.07 ± 0.016.
Work on CTTTGGGGGT yielded a switch fluorescence ratio of 0.979 ± 0.019.
CATTAAATTT gave a switch fluorescence ratio of 1.02 ± 0.011.
Sequence GAGGGGGCTA has a switch fluorescence ratio of 1.02 ± 0.029.
TCGAAGGGTG gave a switch fluorescence ratio of 0.999 ± 0.04.
Work on TCGGCCTGCT yielded a switch fluorescence ratio of 1.01 ± 0.021.
AGTTTTAGCT was tested, and the switch fluorescence ratio was 0.984 ± 0.029.
ATGACACGGA showed a switch fluorescence ratio of 1.04 ± 0.01.
For TCAGGTGTGT, the switch fluorescence ratio was 1.36 ± 0.11.
Sequence GCTTAAGGGC has a switch fluorescence ratio of 0.956 ± 0.033.
In the case of TGGGATTAAG, the switch fluorescence ratio is reported as 0.987 ± 0.034.
With AATAAGGT the switch fluorescence ratio was 1.003 ± 0.0056.
With TTAAGTACGG the switch fluorescence ratio was 1.3 ± 0.016.
In the case of GAGTTGGTCT, the switch fluorescence ratio is reported as 1 ± 0.027.
AATATGATGT was tested, and the switch fluorescence ratio was 1.05 ± 0.04.
TAAGTGTAGC was tested, and the switch fluorescence ratio was 1.035 ± 0.0035.
In the case of AGGGTTCGAC, the switch fluorescence ratio is reported as 1.01 ± 0.039.
Sequence CAAGAGCGGT has a switch fluorescence ratio of 1.02 ± 0.047.
GGGAGGGTGA showed a switch fluorescence ratio of 0.99 ± 0.025.
AGAACTCTTT showed a switch fluorescence ratio of 1.02 ± 0.022.
Sequence AGATACATAT has a switch fluorescence ratio of 1.05 ± 0.0056.
Work on TGTTTGGTTT yielded a switch fluorescence ratio of 1.01 ± 0.013.
In the case of GAGGCTTCTA, the switch fluorescence ratio is reported as 1.02 ± 0.036.
In the case of TTGTTTTTGT, the switch fluorescence ratio is reported as 1.03 ± 0.032.
For TGATATTCGA, the switch fluorescence ratio was 0.997 ± 0.012.
In the case of TTTTAAGGAA, the switch fluorescence ratio is reported as 1.04 ± 0.071.
Sequence GGGAGGGGGC has a switch fluorescence ratio of 1.01 ± 0.075.
In the case of TGGTAAATGT, the switch fluorescence ratio is reported as 0.97 ± 0.013.
Work on TTACGGGTAT yielded a switch fluorescence ratio of 1.01 ± 0.039.
With GACTGTCGAG the switch fluorescence ratio was 0.991 ± 0.027.
TTTGCCCCTG gave a switch fluorescence ratio of 1.03 ± 0.021.
GTGGGGGTAT was tested, and the switch fluorescence ratio was 1.05 ± 0.15.
Work on TTAGATCATG yielded a switch fluorescence ratio of 1.01 ± 0.023.
CGTTAAGGCT gave a switch fluorescence ratio of 0.973 ± 0.015.
For GAGAGCGGTG, the switch fluorescence ratio was 0.9953 ± 0.0075.
With GACCATTTGT the switch fluorescence ratio was 0.995 ± 0.033.
Work on AATAGGGGAC yielded a switch fluorescence ratio of 1.01 ± 0.016.
Work on GTTTTCCGTC yielded a switch fluorescence ratio of 1 ± 0.013.
TGGGGTATGG was tested, and the switch fluorescence ratio was 0.978 ± 0.033.
Sequence AAAGATAGGG has a switch fluorescence ratio of 1.01 ± 0.018.
GGGGGGCATG showed a switch fluorescence ratio of 0.992 ± 0.035.
TAGATAGCTT gave a switch fluorescence ratio of 1.0112 ± 0.001.
For GAGTCCGCCT, the switch fluorescence ratio was 1.6 ± 0.093.
TTGATTTGGT showed a switch fluorescence ratio of 1 ± 0.011.
Sequence TGGGGAAATG has a switch fluorescence ratio of 0.997 ± 0.029.
TTTGGATTGT showed a switch fluorescence ratio of 1.006 ± 0.0074.
Work on CAAGGGTATT yielded a switch fluorescence ratio of 1.01 ± 0.017.
Sequence GAATTCGGAA has a switch fluorescence ratio of 1.0486 ± 0.00049.
TTATAGGTTT was tested, and the switch fluorescence ratio was 1 ± 0.019.
Sequence GGTGTTTCAT has a switch fluorescence ratio of 0.973 ± 0.053.
Sequence GGCTTTGGAC has a switch fluorescence ratio of 0.994 ± 0.055.
Work on GATGGAGGAT yielded a switch fluorescence ratio of 1.01 ± 0.021.
ACGAAGGCTA was tested, and the switch fluorescence ratio was 1.14 ± 0.028.
GAATTCGGAC was tested, and the switch fluorescence ratio was 1.04 ± 0.016.
In the case of TCATCCTAGC, the switch fluorescence ratio is reported as 1.19 ± 0.062.
In the case of TCAGTCAAGG, the switch fluorescence ratio is reported as 0.9745 ± 0.0044.
With AGGTGAGGGC the switch fluorescence ratio was 1.02 ± 0.015.
Sequence ACTGCAAGGA has a switch fluorescence ratio of 1.029 ± 0.0078.
Sequence AGGGATGTTT has a switch fluorescence ratio of 0.999 ± 0.026.
GGGGGGAGCA gave a switch fluorescence ratio of 0.992 ± 0.018.
With GAGACGGGGG the switch fluorescence ratio was 1.02 ± 0.033.
Sequence AATGTGGTCG has a switch fluorescence ratio of 0.983 ± 0.085.
TCGGGAGAAT was tested, and the switch fluorescence ratio was 1.01 ± 0.015.
With AGGGGTTTGG the switch fluorescence ratio was 0.983 ± 0.024.
